Experimental data from the domain aggregation screens of Martell et al. (2025).

Experiment: soluble fraction after stress (log2 fold change); higher = more stays soluble; pooled small domains, quantitative proteomics
Details: stress: pH 4
Procedure, shortened: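 Values are log2 fold changes, and higher ones mean more of the domain stayed soluble. Each fold change reflects the soluble amount of a domain after acid stress and is taken as a measure of aggregation propensity. The stress was pH 4, applied to pooled custom libraries of small protein domains analysed by high-throughput quantitative proteomics.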
For “HMTKQIILVHVAGKVKKPDVYPLLQGSRVADAIKAAGGAKKGVELNDINLARVLIDGEQVFVGYVPE”, the “soluble fraction (log2)” value was -0.277. For “HMTKQRSAIMNLLAERNTPLTAEEIGEAIAPSYPKLALSTVYRNLELFTNAGLLEKSFFQDGITRYSLTK”, the “soluble fraction (log2)” value was -0.242. With “HMTKRTEPSILQNFDTEIAELIAKNRGISIMDALRIFLASKTHEMLENDEMKLWYFSPLAVFDMWENE” the “soluble fraction (log2)” value was -0.61. For “HMTKSIDFDFREDGVYIKADKDVTIVDIVTKIDLRRIQSVDLTKIKQMLEIGSLDNWIKIAEPQMEK”, the “soluble fraction (log2)” value was -1.44. In the case of “HMTKSTLQRQKIIADLIESGNISSQNQLKGLLKKNSLLITQATLSRDLSELGAIKKRQKDGLLVYVLPK”, the “soluble fraction (log2)” value was -0.0863. In the case of “HMTKTKADKIDYAIGDSGTEPPTEDKWTDLAHLPLIKAGQFQWTRRTEYYSDGSTAVSYNIAKSE”, the “soluble fraction (log2)” value was 0.156. In the case of “HMTKYKEIVDQLRTNIYEGVFPALSKLPEQTALAKRFQTSRMTIQKALNQLKQEGLISTKRGHGTYVNSAT”, the “soluble fraction (log2)” value was 0.021. For “HMTKYVEGQKYVFEFRDGTITIGTYLRTGEGNIYIKDLSGEDIYIPKIMIAQIHLATDDNVKGDEFWF”, the “soluble fraction (log2)” value was -1.17. In the case of “HMTLDSLEKLSVNDLEKMLVNMPVGYKTIFLLSVIDEYSHKEIGELLGITPETSRSQLFRAIKWIKTNIF”, the “soluble fraction (log2)” value was -0.706. In the case of “HMTLGARTLAAIQSLPKVQQAVFTMKHFEGLKYREISQITGTSEGALKASYHIALEKIKAFLREK”, the “soluble fraction (log2)” value was -0.443. In the case of “HMTLGEHILQYRTARGWSQEDLANALEVSRQSVSKWETDASTPELDKIVRLSEIFQVSIDELVTGKA”, the “soluble fraction (log2)” value was 0.0683. In the case of “HMTLGENLQNLRKEAGLSQEQVAQQLFVSRQTVSKWENNLAEPGVENLKALARLYGVTLDRLVGM”, the “soluble fraction (log2)” value was -0.323. In the case of “HMTLKVQLSEISKMVSLSYIAKKYFNKSQSWLSQRINGNTIHNKPAKFTSEELATLQFALKDIGNILNSTV”, the “soluble fraction (log2)” value was -0.658. For “HMTLLVPASKEAILGGLAKIDALKVILKPEKDYSKTHAMTIGTKDEVIAKLDSFLSGMDSEKNQVLIQEYM”, the “soluble fraction (log2)” value was -0.135. For “HMTLSDIGHAVRTRRTELGLSQVQLARLSGLSRQTLVGLENGTLNDLGINRVAQLLAVLGLDAP”, the “soluble fraction (log2)” value was -0.203. With “HMTLSHAINRLRLNANMSQEQFAGLFHVSQQSVQKWESGDSVPELSKLIAIAKHFGISLDALILGN” the “soluble fraction (log2)” value was 0.0336. With “HMTLTEQQITDNYKELRKIINDTFSGLRLDKLNHMYDDLEDRMVVAPASSVEHYHNSKVGGYVEHILHVI” the “soluble fraction (log2)” value was -0.132. With “HMTLTIEDGYVNAKLKTTVEGLAEDSTIKVDSIEYTNAGKNDILTVFVEDKPYRVEKYKINIAPEDS” the “soluble fraction (log2)” value was -1.12. In the case of “HMTLVSALDQKTKDSAYYRGTYLAGKISAGKMTKQEAVADIMKNYDGNTAAMKVAAEKAGVSDLLSQTVL”, the “soluble fraction (log2)” value was 0.0773. In the case of “HMTMKQVFIETDANVNQKIMLNEKEAHHLFDVLRTSDKETIRVVTNTSQVFLARVQQKPYIYLFDKMTVE”, the “soluble fraction (log2)” value was -1.76. For “HMTMNYFIIENNQQVGPLTLEQLVARNITSDTLVWKEGMEDWQPAWKVDELHTVLDQIRANAEQ”, the “soluble fraction (log2)” value was -1.19. With “HMTMVVIMNADATQADIEGVISAIEEKGLEAKVMEGAHQKIVGVIGDKTKLAATPLDAMHGVETTVAIS” the “soluble fraction (log2)” value was 0.131. With “HMTNATVGQIKKLARASILYGNSNLSGNRYTYKANTTVTILQNISSNVDKIRVNVTGRVAYIDNSNYSSST” the “soluble fraction (log2)” value was 0.34. In the case of “HMTNEQLSKAKSWVQIAVYAAEKLYGAGNGDQKLVYAEEILRKHGIRLDTATLKAMIDAQIKEMEN”, the “soluble fraction (log2)” value was 0.131. For “HMTNEWRKILSNLNGKYQIVMELFYVDGFSTKEIARMLHITEVNVRSRMVRGRKQLEQILTVR”, the “soluble fraction (log2)” value was 0.0998. For “HMTNPPITTEARNLVVEQLKELNALHPEKARELADSYKKEFNVPKVIGHITEARHGEFLALAISKIDES”, the “soluble fraction (log2)” value was -0.399. In the case of “HMTNPPTPADTLFNTVRGVLQSILKSPMKDTEVASALNVSKAQARSWLQRLSDEGLIEKRKNPTAYVL”, the “soluble fraction (log2)” value was -0.321. With “HMTNTYEVIKNDIIFGVLPPLKKLKLLELKKKYITSVSTLREILSRLSGDGFVVSKEQKGFYVSAV” the “soluble fraction (log2)” value was -0.22. In the case of “HMTNVNSLIGKKAIVIQDIDNLKSTGQVKIGGEIWSAQSESNDIISKDTEVEIVKIDGVKLIVRLVPV”, the “soluble fraction (log2)” value was 0.225. For “HMTNYNTEKIIPEEQAGKRLDVVLANIFPEFSRSRLKNWIIDGFILVDGKVLRPRDFVTGGELVSIDVIV”, the “soluble fraction (log2)” value was -0.356. For “HMTPADEAGNDLDIGQTVKILRRVSEGQYEVSYRGTTWQARALNAQAAVEPSFAVIGGKEGNILLVHL”, the “soluble fraction (log2)” value was -0.115. For “HMTPDVAEFRERLRQILPGEQIEVRTANDGIVLSGTVSSIARLDAALQLAERYAPSRVSNLMSVG”, the “soluble fraction (log2)” value was 0.399. With “HMTPEPVREALTFQEGRVFALAAKNMTNAEIAQSLSLKLKTVENYMSIIYQKLALKNRYELLVYARKSGV” the “soluble fraction (log2)” value was -0.117. In the case of “HMTPESSLHSGLGKILHDALTAKIQLTNFEAKFLSDMQSKYDLNGSFSWLSSKQQTTLEKILAKYGR”, the “soluble fraction (log2)” value was 0.0478. With “HMTPFLVRVDISDLNIRTGAGTNYSRTGQYTGKGIFTILEVKSGQGSDAGWGRLKSGAGWISLDYTTR” the “soluble fraction (log2)” value was 0.275. In the case of “HMTPIELIEKTIELIENERKVQKLQQKELALKADIPFPTYKDFIYKKRASLENILKLFIALRLF”, the “soluble fraction (log2)” value was -0.88. With “HMTPKVAVPSFVGWKFEDVERQLGTMGLIRGKVDNHPSEEYSEGRVIWQSVLGEVEKGKVIDFWVSTGPE” the “soluble fraction (log2)” value was -0.776. For “HMTPNATWQDDAQSLLRDLIQHQPVLIQISAAKRLRDQAEQISRITGGDTVTRDHVEAAGHALGMGVT”, the “soluble fraction (log2)” value was -0.39. In the case of “HMTPPLSKIRNMTPDQQRSSVIEARKKGYNLLQLEGLAKAQGATPADLLVLRNAWAQSEFDQKR”, the “soluble fraction (log2)” value was 0.331. With “HMTPQVALNDTETAIYEKMKQEKQMLLGELRAQFDISNKLWDTSLKTLTKNQLLAVSKEDDLLFVKL” the “soluble fraction (log2)” value was -0.437. In the case of “HMTPQVTVPDVTGQSFASAKQVLESLGLTVKQQGSTGENDKVIGQNPTSGNADKGATITLTTQDS”, the “soluble fraction (log2)” value was -0.154. With “HMTPSTVQVHVAGAVKNPGVYVLLENARNIDAITAAGGATSEADLERINLSEFIRDGQRVYVPYKGDPI” the “soluble fraction (log2)” value was 0.0384. For “HMTPTITNALEEAEKAVSEVQEGKKEIELTPQGAYIRHLQHAIADRYGISSTSTGRDPKRKVIIY”, the “soluble fraction (log2)” value was -0.437. For “HMTPTNILIVEDEKEIRRFVRTALESEGLRVFESETLQRGLIEAGTRKPDLIILDLGLPDGDGLSYIRDLR”, the “soluble fraction (log2)” value was -0.662. With “HMTPTRQATVSVAALNVREQPSLQGRRLGKLTQGTTLTVVGPPGEWLKIEYKGETGFVYASYTSLG” the “soluble fraction (log2)” value was -0.0723. In the case of “HMTPTVEAAKEEVLRVLASAAPRGLTRTELEAEVSFRRTKLRDTLVELERIGRIDSVGRRGNATTYRLIG”, the “soluble fraction (log2)” value was -0.0736. For “HMTPVEVNARGVHVDFSKGGILLEDVVRHLILEALRASEWKRGPAAQLLGISKETLRYRMEKYRLYPP”, the “soluble fraction (log2)” value was -0.706. With “HMTPYEVLVYESLKQKILSGGYAAGEKIPEQSVSEELGVSRSPLRSAIRRLASEGLIEYYPYRGAFVKA” the “soluble fraction (log2)” value was -0.751. With “HMTQEAMRSLRKSLQNLSSRQQVIFMLRHYEGLALKEIAEHLGLETGTVKAHLHRAVTQLRKDLVE” the “soluble fraction (log2)” value was -0.112. With “HMTQHDIVPLMLKMVDVLTQFVELDIPFLQQERQTRLAALNAMMGRADVSLAEKYRRIMEAYQVETEYG” the “soluble fraction (log2)” value was -0.254. With “HMTQLEVDLFERLITISGVGPRLALAVLSGLEPPDLLRAIQDSDIVRLQGIPGVGKKTAERISLELKDKLS” the “soluble fraction (log2)” value was -0.854. With “HMTQQYVEWKVYNVTTIKNKYGFRVKLIFQDGSDATQQKGGFTSKKAAEQARTEVIGQLYSNTYVVY” the “soluble fraction (log2)” value was ≥ 0.43. With “HMTQSGLTQWEFNMLRQALIEMLGEKPGSVFELARLLPLEQEKNVQALRFLLDHDDQFHLKDEYISFVKRT” the “soluble fraction (log2)” value was -1.82. In the case of “HMTQTAVFSKGEQEYYFPLSKVLFFETDGNTINVHTADDIYETRYRLYELEEMLPGSFMRISKSAVVNTNR”, the “soluble fraction (log2)” value was -0.161. With “HMTRAEVQALLEKQAKDFEVEVVHRGWKKTVQTPEFAGWYSQQPAEIKALAESDDPAVAIRMLDLFSGTK” the “soluble fraction (log2)” value was -0.644. For “HMTRETTQAWWEARQTLPSGEQRSAASLSQEASHVRRFYRWAMQQGLTDRNPADWLPDVRQK”, the “soluble fraction (log2)” value was -0.062. With “HMTRIHEEVVNQVHDLVKEGRFKAGDQLPSERELAEIFKVSRTSVREALRALETQGLIISRTGMGNFIAD” the “soluble fraction (log2)” value was -0.472. For “HMTRILTEDDIVNFLIRQPDTAYIIAKSFNENERKVKELLDLLIKKNKVREEIVNGVVSYAVN”, the “soluble fraction (log2)” value was -0.208. In the case of “HMTRKQTIYEFLRRMKSQHGLDAVYSTEEIANAVGVSRANVSSDLNRLFEEQLVEKLPGWPVKYRA”, the “soluble fraction (log2)” value was 0.128. In the case of “HMTRNEFMTALRKRLSHLPAEEQDAALKYYEEYFDEAESEEEAARQLGSPDAIADRILADYGAG”, the “soluble fraction (log2)” value was -0.261. In the case of “HMTRPLVILEDVKFPSYNEIVSLTLPDGTRRGGQVLEVSGNKAIVQVFEGTSGIDVKDTHIELTKSS”, the “soluble fraction (log2)” value was 0.0449. In the case of “HMTRQEFIRKLQEALNGKLDAATIQDHLKFYDDYIIEEMRKGKSEQEVLELLGDPWAIAKTIVDAS”, the “soluble fraction (log2)” value was -0.44. In the case of “HMTRQKEAILALLTDSRGEALSASELLARLTRSGSSIGRTTVYRLLSQLVDDGVVRAWRDASRGITLYELS”, the “soluble fraction (log2)” value was -0.44. With “HMTRQPSAKEHAVLTAVKEGLRRDGRAPTVRALADMTGAASTSTVQRRISALIDLGLLRRTDGTLEVVE” the “soluble fraction (log2)” value was 0.202. With “HMTRRVIRAPAAGIMRSNVKLGDLVKEGDVIAWIGEHEIKAPLTGMVRGLLNDGLAVVGGFKIGDI” the “soluble fraction (log2)” value was 0.157. For “HMTSEPFYNPRRPQPYWTSETDRHTTYADAVRALAREFSETPEWVESNMGETNDLQEIRRNLSRVKSG”, the “soluble fraction (log2)” value was -0.108. In the case of “HMTSESWAEKSRSLAAAGLIVMGRDAQLKIEGLTNLDPLIEAATASSTRLLTGQTIDELLTIVP”, the “soluble fraction (log2)” value was -0.627. For “HMTSEVLTNATIVKMVKAKLSDDIIIDEINNARVNFDVSPEGIKSLTAQNVTEPVIETMKKAVAAQESI”, the “soluble fraction (log2)” value was 0.428.
